Test results published in publication PMC7397465, “Crystal structure of the Rab-binding domain of Rab11 family-interacting protein 2” (Acta Crystallographica. Section F, Structural Biology …, 2020).

Molecular target: the molecule itself
Assay: crystal structure; vapor diffusion, 298 K; protein 6 mg/ml in 150 mM NaCl, 10 mM Tris-HCl, 1 mM DTT pH 7.5; reservoir 0.01 M cobalt chloride, 0.1 M sodium acetate pH 4.8, 1 M 1,6-hexanediol; 2.3 A; four monomers in the asymmetric unit

B1: Rab-binding domain of Rab11 family-interacting protein 2 (domain or fragment, Homo sapiens)
chain: GSHMSNPFDATAGYRSLTYEEVLQELVKHKELLRRKDTHIRELEDYIDNLLVRVMEETPSILRVPYEPSRKAGKFSNS
notes: not FIP2 residues by the stated limits 439-512; Expression vector pNIC-Bsa4 with a TEV protease cleavage site; tag cleaved with TEV before crystallization; In the crystal at least the first seven and the last 15 residues are disordered (monomers seen from 445-451 to 496 or 497); also called FIP2; RBD of FIP2; source: Escherichia coli BL21(DE3), purified (nickel agarose, TEV cleavage, Mono Q, …)
stoichiometry N: 4
